Results reported in the supplement of paper PMC10065799, “High-throughput profiling of sequence recognition by tyrosine kinases and SH2 domains using bacterial peptide display” (eLife, 2023).

What was measured:
AncSZ = assay: phosphorylation enrichment, bacterial display (enrichment ratio); higher = better substrate or ligand; peptides without Tyr show the background
EPHB1 = EPHB1 (UniProt P54762); assay: as above
EPHB2 = EPHB2 (UniProt P29323); assay: as above
FGFR1 = FGFR1 (UniProt P11362); assay: as above
Chain of FGFR1 (P11362 whole entry, looked up): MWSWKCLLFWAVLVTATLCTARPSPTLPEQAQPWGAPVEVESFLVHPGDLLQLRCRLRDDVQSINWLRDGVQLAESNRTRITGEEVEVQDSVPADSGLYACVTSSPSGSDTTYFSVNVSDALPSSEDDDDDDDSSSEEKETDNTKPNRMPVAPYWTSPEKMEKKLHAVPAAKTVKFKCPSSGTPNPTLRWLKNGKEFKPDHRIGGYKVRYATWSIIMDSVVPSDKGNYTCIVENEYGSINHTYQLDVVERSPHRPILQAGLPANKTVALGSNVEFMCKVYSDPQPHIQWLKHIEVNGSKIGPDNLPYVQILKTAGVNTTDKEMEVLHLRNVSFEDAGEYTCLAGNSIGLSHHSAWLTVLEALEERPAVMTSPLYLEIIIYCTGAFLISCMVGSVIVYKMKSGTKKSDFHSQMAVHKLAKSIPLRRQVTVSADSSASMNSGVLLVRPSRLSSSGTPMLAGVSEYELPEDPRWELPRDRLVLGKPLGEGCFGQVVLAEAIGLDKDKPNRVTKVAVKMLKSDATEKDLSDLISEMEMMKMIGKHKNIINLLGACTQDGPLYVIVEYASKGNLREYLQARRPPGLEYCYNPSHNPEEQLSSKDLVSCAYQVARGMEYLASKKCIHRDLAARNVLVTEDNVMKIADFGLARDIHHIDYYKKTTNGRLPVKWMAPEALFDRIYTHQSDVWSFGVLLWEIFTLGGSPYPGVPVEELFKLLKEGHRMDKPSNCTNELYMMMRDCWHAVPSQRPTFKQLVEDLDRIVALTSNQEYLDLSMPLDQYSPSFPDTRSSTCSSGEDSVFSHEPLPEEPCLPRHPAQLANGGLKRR

FGFR3 = FGFR3 (UniProt P22607); assay: as above
Chain of FGFR3 (P22607 whole entry, looked up): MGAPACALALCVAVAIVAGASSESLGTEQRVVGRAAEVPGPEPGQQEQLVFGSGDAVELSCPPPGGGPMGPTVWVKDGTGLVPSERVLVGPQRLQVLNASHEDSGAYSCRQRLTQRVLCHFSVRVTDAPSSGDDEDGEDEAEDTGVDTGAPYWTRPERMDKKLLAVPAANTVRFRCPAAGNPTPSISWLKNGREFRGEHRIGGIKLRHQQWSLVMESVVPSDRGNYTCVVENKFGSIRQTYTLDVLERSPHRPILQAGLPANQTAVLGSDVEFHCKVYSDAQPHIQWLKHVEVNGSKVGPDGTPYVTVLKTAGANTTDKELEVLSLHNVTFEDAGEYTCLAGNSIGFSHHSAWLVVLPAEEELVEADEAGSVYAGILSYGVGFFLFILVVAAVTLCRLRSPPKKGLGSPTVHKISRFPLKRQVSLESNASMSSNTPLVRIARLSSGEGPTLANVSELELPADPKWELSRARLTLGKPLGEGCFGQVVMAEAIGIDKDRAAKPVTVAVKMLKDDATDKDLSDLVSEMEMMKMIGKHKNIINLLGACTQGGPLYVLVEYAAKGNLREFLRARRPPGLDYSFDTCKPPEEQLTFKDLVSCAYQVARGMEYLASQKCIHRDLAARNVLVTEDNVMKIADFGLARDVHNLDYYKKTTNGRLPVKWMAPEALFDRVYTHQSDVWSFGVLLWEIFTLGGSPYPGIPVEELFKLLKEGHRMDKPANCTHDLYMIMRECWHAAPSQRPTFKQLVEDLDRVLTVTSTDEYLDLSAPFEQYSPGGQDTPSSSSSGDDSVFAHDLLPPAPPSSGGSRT

Fer (mouse) = assay: as above
Fes = Fes (UniProt P07332); assay: as above
Chain of Fes (P07332 whole entry, looked up): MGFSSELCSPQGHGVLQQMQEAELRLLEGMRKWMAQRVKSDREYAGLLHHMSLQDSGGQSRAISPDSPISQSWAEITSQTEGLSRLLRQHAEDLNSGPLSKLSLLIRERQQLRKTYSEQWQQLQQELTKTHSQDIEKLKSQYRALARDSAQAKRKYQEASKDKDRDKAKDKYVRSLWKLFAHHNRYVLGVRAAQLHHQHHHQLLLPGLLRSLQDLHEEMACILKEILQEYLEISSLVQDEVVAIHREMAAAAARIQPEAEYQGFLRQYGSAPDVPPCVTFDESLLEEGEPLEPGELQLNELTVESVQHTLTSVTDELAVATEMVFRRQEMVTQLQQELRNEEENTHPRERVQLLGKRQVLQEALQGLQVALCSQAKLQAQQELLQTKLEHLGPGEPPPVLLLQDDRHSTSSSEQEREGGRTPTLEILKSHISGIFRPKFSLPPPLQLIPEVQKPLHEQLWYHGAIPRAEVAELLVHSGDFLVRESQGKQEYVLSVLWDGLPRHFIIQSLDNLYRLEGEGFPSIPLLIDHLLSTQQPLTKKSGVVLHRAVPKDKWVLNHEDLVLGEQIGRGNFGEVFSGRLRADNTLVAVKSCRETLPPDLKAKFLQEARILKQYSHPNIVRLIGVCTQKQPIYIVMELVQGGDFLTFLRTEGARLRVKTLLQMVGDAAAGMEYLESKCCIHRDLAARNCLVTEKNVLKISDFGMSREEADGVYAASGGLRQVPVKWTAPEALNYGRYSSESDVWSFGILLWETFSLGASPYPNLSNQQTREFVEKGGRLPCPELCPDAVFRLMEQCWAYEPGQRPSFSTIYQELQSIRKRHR

Fyn = Fyn (UniProt P06241); assay: as above
Chain of Fyn (P06241 whole entry, looked up): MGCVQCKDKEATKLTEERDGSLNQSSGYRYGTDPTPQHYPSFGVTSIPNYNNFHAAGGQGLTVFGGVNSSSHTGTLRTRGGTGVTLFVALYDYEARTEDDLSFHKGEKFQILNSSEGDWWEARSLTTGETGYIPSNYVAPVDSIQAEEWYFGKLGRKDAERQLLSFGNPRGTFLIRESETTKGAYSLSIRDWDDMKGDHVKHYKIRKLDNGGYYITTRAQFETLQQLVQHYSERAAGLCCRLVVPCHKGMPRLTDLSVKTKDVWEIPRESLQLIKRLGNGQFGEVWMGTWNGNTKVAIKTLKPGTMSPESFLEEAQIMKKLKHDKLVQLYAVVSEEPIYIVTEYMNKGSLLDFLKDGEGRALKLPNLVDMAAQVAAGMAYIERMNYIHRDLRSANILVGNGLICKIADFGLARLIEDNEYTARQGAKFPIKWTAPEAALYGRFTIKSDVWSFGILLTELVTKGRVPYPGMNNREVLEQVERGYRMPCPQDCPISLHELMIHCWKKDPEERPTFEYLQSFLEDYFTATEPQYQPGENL

Hck = Hck (UniProt P08631); assay: as above
Jak2 = Jak2 (UniProt O60674); assay: as above
MERTK = MERTK (UniProt Q12866); assay: as above
c-Abl (mouse) = assay: as above
c-Src = assay: as above
Grb2 SH2 = Grb2 SH2 (UniProt P62993); assay: SH2 binding enrichment of the phosphorylated peptide, bacterial display (enrichment ratio); higher = better substrate or ligand; peptides without Tyr show the background
SHP2-C SH2 = assay: as above
c-Src SH2 = assay: as above
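For SH2 binding enrichment of the phosphorylated peptide, bacterial display in this document: peptide library displayed on the E. coli surface as eCPX fusions, selected cells deep-sequenced, score is each peptide's frequency after selection divided by its frequency in the input.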
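For phosphorylation enrichment, bacterial display in this document: 11-residue human phosphosite peptides and single-mutation variants displayed on the E. coli surface, counted by deep sequencing, each peptide's frequency after selection divided by its frequency in the unselected input library; frequency after pTyr selection over input frequency; kinase dosed for 20-30% of maximal phosphorylation in three min.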

Chain of EPHB2 (P29323 whole entry, looked up): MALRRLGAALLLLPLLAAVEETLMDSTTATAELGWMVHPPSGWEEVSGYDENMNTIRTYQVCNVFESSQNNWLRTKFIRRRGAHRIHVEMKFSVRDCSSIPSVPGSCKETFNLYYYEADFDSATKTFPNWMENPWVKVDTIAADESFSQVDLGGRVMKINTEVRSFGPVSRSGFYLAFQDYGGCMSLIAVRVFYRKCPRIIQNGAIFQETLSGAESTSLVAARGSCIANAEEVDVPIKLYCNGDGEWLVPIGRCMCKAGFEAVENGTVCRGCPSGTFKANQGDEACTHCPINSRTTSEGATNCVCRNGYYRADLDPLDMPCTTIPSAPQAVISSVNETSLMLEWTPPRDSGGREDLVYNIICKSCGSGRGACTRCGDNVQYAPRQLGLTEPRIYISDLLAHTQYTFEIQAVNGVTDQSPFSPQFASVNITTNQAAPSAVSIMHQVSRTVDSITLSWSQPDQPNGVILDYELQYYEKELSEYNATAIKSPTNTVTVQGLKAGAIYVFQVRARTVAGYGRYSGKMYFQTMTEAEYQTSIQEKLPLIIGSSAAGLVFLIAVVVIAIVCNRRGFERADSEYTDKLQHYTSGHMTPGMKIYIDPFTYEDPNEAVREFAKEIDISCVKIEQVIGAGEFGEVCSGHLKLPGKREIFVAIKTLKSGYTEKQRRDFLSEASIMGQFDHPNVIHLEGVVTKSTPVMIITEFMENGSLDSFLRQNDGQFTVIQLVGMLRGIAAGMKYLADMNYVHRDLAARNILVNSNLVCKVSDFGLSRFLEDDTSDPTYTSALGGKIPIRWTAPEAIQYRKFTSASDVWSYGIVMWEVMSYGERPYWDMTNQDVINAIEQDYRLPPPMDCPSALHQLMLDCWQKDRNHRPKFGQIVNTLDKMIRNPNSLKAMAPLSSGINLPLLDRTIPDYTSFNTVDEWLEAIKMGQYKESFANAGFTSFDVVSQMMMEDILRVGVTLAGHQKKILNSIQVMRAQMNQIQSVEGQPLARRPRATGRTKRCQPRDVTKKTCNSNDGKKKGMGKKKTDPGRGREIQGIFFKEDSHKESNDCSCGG
Chain of EPHB1 (P54762 whole entry, looked up): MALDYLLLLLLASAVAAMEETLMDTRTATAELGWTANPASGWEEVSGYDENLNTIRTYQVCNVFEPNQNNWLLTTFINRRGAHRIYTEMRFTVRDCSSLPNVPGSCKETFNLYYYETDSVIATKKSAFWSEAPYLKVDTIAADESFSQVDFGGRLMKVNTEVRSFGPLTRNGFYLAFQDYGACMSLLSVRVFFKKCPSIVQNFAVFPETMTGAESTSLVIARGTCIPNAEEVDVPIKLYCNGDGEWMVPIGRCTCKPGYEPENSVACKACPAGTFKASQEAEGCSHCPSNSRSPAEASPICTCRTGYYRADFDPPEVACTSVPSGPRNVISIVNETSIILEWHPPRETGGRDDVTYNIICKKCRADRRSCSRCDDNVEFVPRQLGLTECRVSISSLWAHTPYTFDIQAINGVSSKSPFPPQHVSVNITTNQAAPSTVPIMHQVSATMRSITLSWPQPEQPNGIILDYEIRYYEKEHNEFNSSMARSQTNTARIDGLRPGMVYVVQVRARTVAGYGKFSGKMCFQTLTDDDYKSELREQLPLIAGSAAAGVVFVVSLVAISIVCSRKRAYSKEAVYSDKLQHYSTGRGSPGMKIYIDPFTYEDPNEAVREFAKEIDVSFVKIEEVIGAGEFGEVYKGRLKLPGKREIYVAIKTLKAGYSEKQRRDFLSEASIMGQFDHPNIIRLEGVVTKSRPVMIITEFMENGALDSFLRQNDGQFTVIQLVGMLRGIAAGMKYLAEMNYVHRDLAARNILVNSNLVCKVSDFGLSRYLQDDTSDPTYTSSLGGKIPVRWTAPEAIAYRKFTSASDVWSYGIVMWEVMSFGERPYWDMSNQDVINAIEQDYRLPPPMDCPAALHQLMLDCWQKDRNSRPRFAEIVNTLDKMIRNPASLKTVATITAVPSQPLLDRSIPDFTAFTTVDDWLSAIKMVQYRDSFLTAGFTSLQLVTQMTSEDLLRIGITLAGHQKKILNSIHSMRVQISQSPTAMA

Row | Sequence | SH2 binding enrichment (Grb2 SH2) | SH2 binding enrichment (SHP2-C SH2) | SH2 binding enrichment (c-Src SH2) | phosphorylation enrichment (AncSZ) | phosphorylation enrichment (EPHB1) | phosphorylation enrichment (EPHB2) | phosphorylation enrichment (FGFR1) | phosphorylation enrichment (FGFR3) | phosphorylation enrichment (Fer (mouse)) | phosphorylation enrichment (Fes) | phosphorylation enrichment (Fyn) | phosphorylation enrichment (Hck) | phosphorylation enrichment (Jak2) | phosphorylation enrichment (MERTK) | phosphorylation enrichment (c-Abl (mouse)) | phosphorylation enrichment (c-Src)
1 | RQLEIYRASRP [ERCC4_Y594] | 0.623 | 0.49 | 0.402 | 0.663 | 0.388 | 0.254 | 0.312 | 0.389 | 0.427 | 0.673 | 0.426 | 0.316 | 0.535 | 0.391 | 0.727 | 0.408
2 | RQNRFYDAKVR [FKBP6_Y188] | 1.02 | 0.675 | 0.441 | 0.687 | 0.226 | 0.432 | 0.506 | 0.496 | 0.605 | 0.715 | 0.427 | 0.606 | 0.81 | 0.672 | 0.658 | 1.18
3 | RRAKGYPINLY [ITGB2_Y125_D128N] | 0.764 | 0.55 | 0.484 | 0.762 | 0.707 | 0.853 | 0.814 | 0.605 | 0.656 | 0.932 | 0.963 | 0.912 | 0.693 | 0.623 | 0.535 | 0.7
4 | RRESPYGGGGG [FUS_Y526_R524S] | 0.907 | 0.362 | 0.566 | 0.636 | 0.46 | 0.546 | 0.402 | 0.414 | 0.436 | 0.611 | 0.451 | 0.596 | 0.74 | 0.501 | 0.569 | 0.519
5 | RTVPLYESLRK [DDB1_Y718_P721L] | 1.04 | 1.07 | 0.78 | 0.668 | 23 | 26.1 | 0.466 | 0.437 | 11.3 | 1.15 | 11.7 | 12.4 | 0.547 | 8.17 | 1.07 | 8.53
6 | RVGNMYMRGLS [ABCG8_Y209_V210M] | 1.42 | 1.7 | 1.01 | 0.672 | 0.615 | 0.559 | 0.704 | 0.596 | 0.469 | 0.966 | 0.657 | 0.615 | 0.663 | 0.697 | 0.453 | 0.552
7 | SDPIIYTLENI [ADGRE1_Y534] | 0.936 | 0.777 | 0.519 | 0.963 | 0.568 | 0.559 | 0.491 | 0.724 | 7.52 | 1.31 | 7.17 | 1.49 | 0.948 | 1.43 | 0.653 | 5.13

Now from value to sequence, other results behind:

Row | SH2 binding enrichment (Grb2 SH2) | SH2 binding enrichment (SHP2-C SH2) | SH2 binding enrichment (c-Src SH2) | Sequence | phosphorylation enrichment (AncSZ) | phosphorylation enrichment (EPHB1) | phosphorylation enrichment (EPHB2) | phosphorylation enrichment (FGFR1) | phosphorylation enrichment (FGFR3) | phosphorylation enrichment (Fer (mouse)) | phosphorylation enrichment (Fes) | phosphorylation enrichment (Fyn) | phosphorylation enrichment (Hck) | phosphorylation enrichment (Jak2) | phosphorylation enrichment (MERTK) | phosphorylation enrichment (c-Abl (mouse)) | phosphorylation enrichment (c-Src)
8 | 0.843 | 0.556 | 0.835 | RQNQEYEILMD [KRT39_Y379_L383M] | 1.53 | 1.79 | 1.58 | 0.698 | 0.847 | 0.705 | 1.45 | 0.815 | 0.695 | 1.66 | 0.503 | 0.994 | 0.861
9 | 0.612 | 0.519 | 0.407 | RQSRNYLGGFA [SYK_Y47] | 0.841 | 0.316 | 0.56 | 0.329 | 0.386 | 0.404 | 0.562 | 0.597 | 0.483 | 0.436 | 1.75 | 0.684 | 0.69
10 | 0.906 | 0.262 | 0.378 | RRIHSHRGHLW [VHL_Y112_Y112H] | 0.918 | 0.773 | 0.732 | 0.558 | 0.701 | 0.689 | 1.01 | 0.604 | 0.737 | 0.659 | 0.621 | 0.909 | 0.828
11 | 0.707 | 0.61 | 0.651 | RRIHSYRCHLW [VHL_Y112_G114C] | 0.967 | 0.564 | 0.477 | 0.642 | 0.641 | 0.68 | 1.25 | 0.767 | 0.629 | 0.762 | 0.786 | 0.822 | 0.748
12 | 0.7 | 0.509 | 0.695 | RRNNSYTCFTA [SLC20A2_Y386_YF] | 2.81 | 0.96 | 1.65 | 0.886 | 1.33 | 0.734 | 1.68 | 1.19 | 0.771 | 1.95 | 1.3 | 1.86 | 1.69
13 | 0.923 | 0.804 | 0.639 | RSAGKYDVYFI [MECP2_Y120_L124F] | 1.09 | 0.691 | 0.467 | 0.535 | 0.484 | 0.464 | 1.34 | 5.26 | 4.46 | 0.925 | 1.02 | 0.923 | 3.15
14 | 0.844 | 0.809 | 0.476 | RSDSSYRMSAT [NHS_Y1532] | 0.764 | 0.592 | 0.673 | 0.717 | 0.754 | 0.541 | 0.757 | 0.747 | 0.775 | 0.598 | 0.68 | 0.679 | 0.585
15 | 0.951 | 0.785 | 0.506 | SAEKAYHEQLS [TUBA1A_Y282] | 0.558 | 0.462 | 0.424 | 0.604 | 0.572 | 0.425 | 0.844 | 0.428 | 0.443 | 0.619 | 0.418 | 0.511 | 0.369
16 | 1.05 | 0.716 | 0.807 | SCRENYSFSEE [LEMD3_Y258_D260Y_YF] | 1.1 | 0.709 | 0.725 | 0.452 | 0.75 | 0.53 | 1.08 | 0.501 | 0.509 | 0.988 | 0.38 | 0.791 | 0.588
